Experimental findings from the DeepSol protein solubility set are described below.

The data set in a line: soluble on expression in E. coli; label from the status in PepcDB or PDB records.
As for “MSDSLPQRNGGQILVEALRRNAVDTVYCIPGESYLPVLDALYDTDGIRTVVTRHEGAASNMADAYGKLTGRPGICFVTRGPGATHAANGVHTAQQDSTPMILFVGQVESAFKGREAFQEVDYVQMFSGLAKWAVEIDRIERIPEIVGRAFSVATSGRPGPVVVALPEEILFGSAQVADAPEPRVLPGRPGATAMAELRELLANARRPLLVLGGSGWDSAARKRLGAFVEANGLPVATSFRRQDLFDNRDPHYAGQLGFGAAPALLERLRQADLLLVVGARLGETPSAGYSLVRSPAPAQTLIHVHPDSAELNRVYLARLPIQATPCAFAEALADLAPLPSSTWQDWREAAHADYLAYSTPAASDPAVQGVDLASVVAYLSENLPDDAVIANGAGNYAVWVHRFYRYRQARTQLAPTNGAMGYGLPAAIAASLRDPQRSVVCFAGDGCFMMYPQELATAAQFGATPVVIVVNNGMLGTIRMHQEREYPGRVSATRLDNPDFVALARAFGAHAERVECSADFPAAFRRARESGRPALLELLTDPRQITPQA”, the “soluble on expression in E. coli” value was “not soluble”.

Consider “MSDTEKYVARPAVGHLPLDDSWTPTSAEAIQDEPSPDEEEYKRQYTCRMVPNEGPLYQHYMLEAVAVADDEVKIPLEEVKEEPVELPAAVVHEVVALKPATRRESSISSDSGRGADCSTTSASALTSNTSMRRDRLVGTSNFGSQRSLWCELPEVRAAGLLEKLDDECKLRQEAYFEVITSEASYLRSLNVLITHFMASPQMLGSKSALSVLSDSDRKHLFSNIFAVRDCSERLLCDLETRLEENLILDDICDILSDHFDKHFEVYIKYCSNQVYQDRTLRRLKTENPGFLSAVQRLEENKQCQGLDMRSFLMLPMQRVTRYPLLLYAILDRITTTDDRYKTATDALTSSNRVVRDCNEGARRMERTEQLLDIDRRLIYKDADLKRIPLVSNSRYLVKKGVLTQLVERRSSNILQSRQKARTLHVFLFSDMIMITKKKLNGTFVCKDYAARRFVDMQPIEPDNPKIPLGATSNLVGRPHLFLCTLMRNARDKQTELLLSADSETDRERWLSAVRPPTSTNPEEKIYAEWDCPQALVVHAYQPSQADELQLNIGDSLNILRKMPDGWLYGERAGDGLGGWFPSSYVQAIINDHTRANNYRQRLRIIQAASGWHGNASPSSTRSGGMPLMDRLRRMSNPKTYFQSGTVGL”, for which the “soluble on expression in E. coli” value was “not soluble”.

“MSDTPKYTQDQVIAIKNRILEALETVIDPELGIDVVNLGLIYEIRFNDNGYTEIDMTLTTMGCPLADLLTDYIHDALQDVPEVTKTEVKLVWYPAWTVDKMSRYARIALGIR”: the “soluble on expression in E. coli” value is recorded as “not soluble”.

Regarding “MSDVDVFVIDDDFDPLADLSLDDGERDDAEADYLPPIPDADKSVVPPVVPLSATERIEKLLAGIPGQQFRLLHAVEFCTEPKTMDEAVADLDAAYPNTTSVYGSAQVVQLLERDGALERIVDEDAAHAAAGDAADTPAEDEGFISVTPAPPCRYRATQAGLDAVAAHVNEGLVAERISEDERYLPIFQRVLEMCAREGGCPTKELDQAVDGDPLCQEPRRFCGFFRGKLEETGAIEWRDAWTITDLGRSVLASGLFAAASPSER”, the “soluble on expression in E. coli” value is “not soluble”.

Consider “MSEDADLKIFMDFLVEKTKDAFQPMIAVQVFREYLNEKSHLHDYHYKRFCCDLAPNMNEWNNYSIEARIRLMYALGGKVESDFLERIETHGTVELNKKRKITKYTSNDGILSLQDNRVHFTRFMDFLIQKTKYAVEPMNFNQVLEEFCRLEPDCRHYGVYYVRFHHKLAPNMDALNNYNIYDRIRLMFVLNGKVSGDFFKTIKTHGTVELDRKKKITKYVSNDGKLKLGGNIISDTRLMDFLIQKTRHSVEPMQATNLIFKEFSERPSRILDKMYQLRFYQKLAPNMNEWNRYSIEQRIRLMFVLKGKVADDFLKTIPILSMAKRIMICRIETHGTVELDEKRRIRKYTSNDGKLSLKKPLTDDTSCPTNIRFMDFLIQNTKDGAESIRLIYNEFALLEGNVLSASTYSSRFCKKLAPKMSQWSNYRIEDRIRMMFALKGKVESDFLAQMIQSGAVQLDENYRIVRYTSNNGKVELSEKRSGVKRRSSTKSSKTLGKRRQVIEKELSDLDEPEFVGIMHGYPKQEPVYEEIINQDMRYNNEDPHIPPEIEQFPIQAVHLEEPKFDPISSMNIGRGTLAQRFGTTSSESDGISVHNFLISLELILTSLESDTLIDLMREIKELRNRTNDEILPPDLVIPALQTCFMGITRKFRPEVSAPSKSAGECLRILKYSLLWLQSPLLYDLQKRVQEEIENCGADGKVIPIADIQQGIRNILFAVSI”, for which the “soluble on expression in E. coli” value was “not soluble”.

As for “MSEDDPRPLHIRRQGLDPADELLAAGALTRVTIGSGADAETHWMATAHAVVRQVMGDHQQFSTRRRWDPRDEIGGKGIFRPRELVGNLMDYDPPEHTRLRRKLTPGFTLRKMQRMAPYIEQIVNDRLDEMERAGSPADLIAFVADKVPGAVLCELVGVPRDDRDMFMKLCHGHLDASLSQKRRAALGDKFSRYLLAMIARERKEPGEGMIGAVVAEYGDDATDEELRGFCVQVMLAGDDNISGMIGLGVLAMLRHPEQIDAFRGDEQSAQRAVDELIRYLTVPYSPTPRIAREDLTLAGQEIKKGDSVICSLPAANRDPALAPDVDRLDVTREPIPHVAFGHGVHHCLGAALARLELRTVFTELWRRFPALRLADPAQDTEFRLTTPAYGLTELMVAW”, the “soluble on expression in E. coli” value is “soluble”.

With “MSEDIFDAIIVGAGLAGSVAALVLAREGAQVLVIERGNSAGAKNVTGGRLYAHSLERIIPGFADQAPIERMITHEKLAFMTDNGAMTIDYCNGEDASASQVSYSVLRSKFDAWLMEQAEEAGAQLITGIRVDNVVQRDGKVVGVEADGDILEAKVVILADGVNSLLAEKLGMTKRVEASHVAVGVKELIELPKLVIEDRFQLQGNEGAACLFAGAPTDGLMGGGFLYTNETTLSLGLVCGLHHLKDAKKSVPQMLEDFKQHPAVAPLIAGGKLVEYAAHVVPEAGMNMQPELVGDGVLIAGDAAGMCMNLGFTIRGMDLAISAGEAAAKTVLSAMKRDDFSKQSLGEYRQHLDEGPMRDMRMYQKLPAFLDNPRMFTAYPEMAVNIARDLFTVDGSAPVPMRKKILRHAKKVGFINLMKDGLKGVTVL”, the “soluble on expression in E. coli” value was “not soluble”.

In the case of “MSEDVSKNLSETLFVKHKQAKETSALTQYMPTSKKILDDREQQEDRAWYRHLRRLQWAWQGLSPIEMEGVLSRIASSTHSRTHDDWLDTVMGYHSGNWTFEWIKLGMEHQRRANDLKGEDAADELFTASLCFSIAGYPHLKNDNLALQAQVLANKAYSEGAEKTQYTIKQIEVPYQKRKIIANLHLPRTDKQLPVVMVSAGLDSLQTDMWRLFRNHFAPKDIAMLTVDMPSVGHSSHWPLTEDSSCLHQAVLNELYSIPYVDHHKVGLVGFRFGGNAMVRLSFLEQEKIKACVALGAPVHDLFTSPKKLQKMPKMYLDMLASRLGKSAVDINSMAGQMMAWSLKVQGFLSSRKTKVPILALSLEGDPVSPYSDNQLVALFSHYGQAKKISSKTITKGYEQSLDLAIKWLEDELLR”, the “soluble on expression in E. coli” value is reported as “not soluble”.

“MSEKDQSVNNTEEDFNVETEDNQNDTNIENSVSNTDNSEANASDSENNSEESIKDEESESQDTKIKELEKLANDNEEKYLRLYAEFENYKRRIQKENQINATYKAQGVLTDILPSIDNIERALQIEGDDESFKSLQKGVQMVHESLLRALKDNGLEEILAEGKEFDPNLHQAVVQDDNPDFKSGEVTQELQKGYKLKDRVLRPSMVKVNQ”: the “soluble on expression in E. coli” value is recorded as “soluble”.

Turning to “MSEMPAREQMISAYSELVGLDPVSLGDGVAEVRLPMAAHLRNRGGVMHGGALFSLMDVTMGLACSSSHGFDRQSVTLECKINYIRAVADGEVRCVARVLHAGRRSLVVEAEVRQGDKLVAKGQGTFAQL”, the “soluble on expression in E. coli” value is listed as “soluble”.

With “MSETATWQPSASIPNLLKRAAIMAEIRRFFADRGVLEVETPCMSQATVTDIHLFPFETRFVGPGHSQGINLYLMTSPEYHMKRLLAAGCGPVFQLCRSFRNEEMGRHHNPEFTMLEWYRPHYDMYRLMNEVDDLLQQVLDCQPAESLSYQQAFQRHLEIDPLSADKTQLREAAAKLDLSNIADTEEDRDTLLQLLFTMGVEPHIGKEKPTFIYHFPASQASLAQISTEDHRVAERFEVYYKGIELANGFHELTDAREQQQRFEQDNRKRAARGLPQQPIDQNLLDALAAGLPDCSGVALGVDRLVMLALGAESLADVIAFTVDRA”, the “soluble on expression in E. coli” value is reported as “not soluble”.

Turning to “MSETELRKRQAQFTRELHGDDIGKKTGLSALMSKNNSAQKEAVQKYLRNWDGRTDKDAEERRLEDYNEATHSYYNVVTDFYEYGWGSSFHFSRFYKGESFAASIARHEHYLAYKAGIQRGDLVLDVGCGVGGPAREIARFTGCNVIGLNNNDYQIAKAKYYAKKYNLSDQMDFVKGDFMKMDFEENTFDKVYAIEATCHAPKLEGVYSEIYKVLKPGGTFAVYEWVMTDKYDENNPEHRKIAYEIELGDGIPKMFHVDVARKALKNCGFEVLVSEDLADNDDEIPWYYPLTGEWKYVQNLANLATFFRTSYLGRQFTTAMVTVMEKLGLAPEGSKEVTAALENAAVGLVAGGKSKLFTPMMLFVARKPENAETPSQTSQEATQ”, the “soluble on expression in E. coli” value is given as “soluble”.

“MSETFTSVSQEEAGFRERARLSFDLDADICVIGAGLAGLSIALEAARLGASVAVLEGRHIGWNASGNQLGTVMPGFALPLTDLIERIGFEDARELWTLSKEGAEFVRANATEENMPGIAPSDGVLEVSNVDTGDRLISRLQMLHEDFDTEVEGWQVDRVRDVLKTDRYFHGVYYPKAFQVDGRKYVHGLAALARRAGARIFEDTPVVSIDHSGIRKRIVTPSARLRATHIVLAGNIHLGAPLRRLSETLLPVWRYAGITAPLGERVHEIIAFKGSVMDSDGVDHFRIVDGDRLMWESPETTWAARPQRFAGGVRRRIRSIFPQFGNVEIADMFGGATGQTVHGMPQIGQLRKGLWVASGFGRQGMNTSAMAGQMIARSILWGDERWRLFSPFELVWAGGATGRVAGQLVGIWGRASSAAAGTLARYRERARVKDREREARLAEANRAAGTGPRRPPPGVRPRPAPPPKPATEALEPASHDDSVSQLEHHHHHH”: the “soluble on expression in E. coli” value is reported as “not soluble”.

For “MSETVYTAKDYKSGQPRWCPGCGDHAFLNSLHKAMAELGVAPHNIAVISGIGCSSRLPYYVNTYGFHTIHGRAAAVATGAKVANPDLTIWQISGDGDGLAIGGNHFIHAVRRNIDLNMILLNNRIYGLTKGQYSPTSDRGFVSKSSPYGTVEDPFHPAELCFGARGRFFARCVAVDGPASVEVLKAAANHKGASVVEVLQNCVIFNDGTHESVATKEGRSKNAIYLEHGKPMLFGENKEFGLMQEGFGLKVVKLGENGVTEKDILIHNAHSMDNTLQLKLALMEGPDFPIALGVIRDVEAPTYNDAVAEQIDEVKAKKKYHNFQELLMTNETWEVK”, the “soluble on expression in E. coli” value is on record as “not soluble”.

In the case of “MSFATISVIGLGYIGLPTAAAFASRQKQVIGVDINQHAVDTINRGEIHIVEPDLASVVKTAVEGGFLRASTTPVEADAWLIAVPTPFKGDHEPDMTYVESAARSIAPVLKKGALVILESTSPVGSTEKMAEWLAEMRPDLTFPQQVGEQADVNIAYCPERVLPGQVMVELIKNDRVIGGMTPVCSARASELYKIFLEGECVVTNSRTAEMCKLTENSFRDVNIAFANELSLICADQGINVWELIRLANRHPRVNILQPGPGVGGHCIAVDPWFIVAQNPQQARLIRTAREVNDHKPFWVIDQVKAAVADCLAATDKRASELKIACFGLAFKPNIDDLRESPAMEIAELIAQWHSGETLVVEPNIHQLPKKLTGLCTLAQLDEALATADVLVMLVDHSQFKVINGDNVHQQYVVDAKGVWR”, the “soluble on expression in E. coli” value is “not soluble”.
